{"source": "patent US20220218001A1", "about": "“REDOX ENZYMES IN ANIMAL FEED COMPOSITIONS” (Novozymes A/S, priority 2019, published 2022)", "key": {"[1]": {"experiment": "Superoxide dismutase activity (method of Example 9, pH 7.8)", "format": "biochemical", "conditions": "SOD activity"}, "[2]": {"biological_target": "T1, pepsin (Sus scrofa, UniProt P00791)", "T1 construct": "purchased Sigma P7000; host or cells: porcine gastric mucosa (natural source)", "T1 sequence (P00791 60-385)": "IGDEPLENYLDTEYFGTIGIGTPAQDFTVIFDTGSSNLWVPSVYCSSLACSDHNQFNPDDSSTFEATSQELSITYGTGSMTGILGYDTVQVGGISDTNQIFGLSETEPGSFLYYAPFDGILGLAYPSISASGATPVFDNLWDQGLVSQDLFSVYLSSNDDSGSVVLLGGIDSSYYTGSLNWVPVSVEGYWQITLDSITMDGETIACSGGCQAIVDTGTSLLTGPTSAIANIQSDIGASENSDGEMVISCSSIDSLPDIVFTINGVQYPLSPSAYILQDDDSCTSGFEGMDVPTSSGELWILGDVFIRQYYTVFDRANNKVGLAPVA", "experiment": "Gastric stability of superoxide dismutases (method of Example 10, gastric treatment with pepsin)", "format": "in vitro ADME", "experimental": "retains only 26% of its activity upon gastric treatment in the presence of pepsin.\nTwo commercial SODs were tested as references: SOD-Mn, from E. coli Sigma S5639 with a activity of 10240 U/mg EP and only 26% activity left after gastric press for 30 min; and SOD-Cu/Zn from Bovine expressed in E. coli Sigma S9697 with activity of 6108 U/mg EP and only 35% activity left after gastric press for 30 min."}, "[3]": {"experiment": "Thermal stability of superoxide dismutases at different pH, Tm unfolding temperature (method of Example 11)", "format": "physicochemical", "experimental": "Tm: The term Tm, as used in the Examples refers to the temperature at which 50% of the protein molecules are unfolded and 50% of the protein molecules are folded.\nTest were performed on the super oxide dismutases of the invention to measure the temperature at different acidity/alkalinity to determine the temperature at which the polypeptide unfolds and denatures. […] A further embodiment is directed to an animal feed additive comprising a fungal superoxide dismutase thermally stable at pH 7, when measured according to the method described in Example 11, such that protein unfolding (Tm) is 45° C. or more."}, "[4]": {"biological_target": "T1, pepsin", "experiment": "Gastric stability of superoxide dismutases (method of Example 10, gastric treatment with pepsin)", "format": "in vitro ADME", "remark": "listed apart in the source"}, "[5]": {"experiment": "Growth performance of early weaned piglets fed SOD and CAT", "format": "in vivo", "experimental": "The effect of antioxidant enzymes (SOD and CAT) alone at different doses and in combination on the growth performance of early weaned piglets was evaluated in a trial run. A total of eight treatments were tested during the study: 6 test groups: SOD (Product A, SEQ ID No. 1 at 1250 and 2500 U/kg), CAT (Product B, SEQ ID NO 7 and Product C, […]; […]); were compared against a Positive Control feed (fed with Avilamycin at 90.7 g/lb) and a Negative Control (standard ration). Each of treatments contained 12 replicates per treatment randomly assigned and containing 5 male piglets per replicate for a total number of 480 animals on study. Piglets were randomly assigned to treatments on Trial Day 0 (post-weaning at 21 days of age). At 42 days of age, live performance (growth weight gain and feed conversion) was determined. All rations were formulated with an increase of approximately 5-6% additional crude protein above normal commercial levels. Blood samples were collected at day 0, 14 and 42 to evaluate oxidative stress parameters at DSM. Gut tissue samples at the duodenum and ileum to evaluate gene expression linked to oxidative stress, and intestinal content (ileum and caecum), to study the microbiome population, were collected from 12 animals at the beginning of the trial (baseline) and one animal per pen (12 piglets×8 treatments) at day 14 and at day 42.\nThe commercial-simulated test model employed in this study used piglets reared under a normal swine industry Starter diet (Trial Day 0-21) and Grower diet (Trial Day 21-42), reared on slatted floors. Ration formulations were conducted via computer-generated linear regression program that simulates formulations conducted during practical swine production techniques. Treatments were tested in male piglets. Piglets were continuously fed their experimental diets from time of placement on Trial Day 0 to Trial Day 42.\nPiglets were weighed and randomly placed into each pen on Trial Day 0 and fed their respective diets. Each pen had sufficient floor density, feeder and waterer space for each grow-out area for the piglets. Following 42 days of grow-out, piglets were weighed, feed consumption determined, and feed conversion (feed consumed/[…]) calculated.\nA total of 500 male piglets (a sufficient number to ensure availability of at least 480 healthy male piglets for the conduct of the study) were obtained from a swine breeder on Trial Day 0 (upon weaning, when the piglets were 21 days of age). Piglets were fed their respective treatment feed ad libitum from Trial Day 0 to Trial Day 42.\nEach experimental test unit of swine pens was housed in separated pens, located in a room containing forced air heaters with a cross-house ventilation system. Piglets were placed in a 6 ft×6 ft pen floor area with a minimum of 9.0 ft^2 per piglet (without feeder and waterer space) provided. At least two nipple drinkers per pen (via well water) provided water. Piglets were observed daily for overall health, behavior and/or evidence of toxicity, and environmental conditions. Temperature in the test facility was checked daily. Drinking water and feed were confirmed to be provided ad libitum. No type of medication (other than test material) was administered during the entire feeding period.\nLive performance body weights and feed intakes were collected on Days 0, 14, 21, and 42 during the growing period. Weight gain, feed intake, feed:gain ratio (feed efficiency) were calculated for 0-42 days of age between weaning and Trial Day 42. Differences between piglets fed control and test groups were statistically evaluated at P<0.05 in a typical ANOVA analysis of variance test model, employing Treatment×Replicate RCB (Randomized Complete Block). Control group was considered to be the following: Treatment 2, containing Avilamycin at 90.7 g/lb.\nDiets were fed in two feed phases: Starter diet (0-21 days of age) and Grower diet (21-42 days of age). All diets were offered ad libitum, without restriction. […]"}, "[6]": {"experiment": "Piglet trial, growth performance d0-42", "format": "in vivo", "conditions": "piglets, days 0-42", "source_text": "FIG. 17: illustrates the Conversion Ratio (FCR) in piglets from days 0-42. There was significant difference observed in growth performance between positive and negative control."}}, "note": "Where two headings read alike, the source gives them in different places."}
{"molecule": "S9697 Bovine Cu/Zn SOD SIGMA: commercially available superoxide dismutase from bovine erythrocytes and expressed in E. coli of sequence A", "values": [{"measurement": "Relative Activity Unit (U/mg EP)", "setting": "[1]", "result": 6108, "unit": "U/mg EP"}, {"measurement": "activity left after gastric press for 30 min", "setting": "[2]", "result": 35, "unit": "%"}, {"measurement": "activity retained upon gastric treatment in the presence of pepsin", "setting": "[2]", "result": 26, "unit": "%"}, {"measurement": "loss of activity under gastric stability studies", "setting": "[2]", "result": 65, "unit": "%"}, {"measurement": "activity retained at 50° C.", "setting": "[3]; 50° C., method of Example 11", "result": "very little"}, {"measurement": "Tm (unfolding temperature)", "setting": "[3]; pH 3", "result": 50.8, "unit": "°C"}, {"measurement": "Tm (unfolding temperature)", "setting": "[3]; pH 4", "result": 59.3, "unit": "°C"}, {"measurement": "Tm (unfolding temperature)", "setting": "[3]; pH 5", "result": 63.9, "unit": "°C"}, {"measurement": "Tm (unfolding temperature)", "setting": "[3]; pH 6", "result": 66.2, "unit": "°C"}, {"measurement": "Tm (unfolding temperature)", "setting": "[3]; pH 7", "result": 65.2, "unit": "°C"}, {"measurement": "Tm (unfolding temperature)", "setting": "[3]; pH 8", "result": 63.1, "unit": "°C"}, {"measurement": "Tm (unfolding temperature)", "setting": "[3]; pH 9", "result": 61.0, "unit": "°C"}, {"measurement": "Tm (unfolding temperature)", "setting": "[3]; pH 10", "result": 57.0, "unit": "°C"}, {"measurement": "Gastric stability after 15 min (remaining activity, approx, %)", "setting": "[4]; 0.25 h", "result": 35, "unit": "%"}]}
{"molecule": "COC[C@H]1O[C@@H](OC2OC[C@@H]3O[C@]4(O[C@H]3[C@H]2OC(=O)C(C)C)O[C@H](C)[C@@](O)(C(C)=O)[C@@H]2OCO[C@H]24)[C@@H](OC)[C@@H](O)[C@@H]1O[C@@H]1O[C@H](C)[C@H](OC)[C@H](O[C@H]2C[C@@]3(C)OC4(C[C@@H](O)[C@H](O[C@H]5C[C@@H](O)[C@H](OC(=O)c6c(C)c(Cl)c(O)c(Cl)c6OC)[C@@H](C)O5)[C@@H](C)O4)O[C@@H]3[C@@H](C)O2)[C@H]1O", "note": "(stereo partly drawn) [T2, Avilamycin]", "values": [{"measurement": "feed conversion (FCR)", "setting": "[5]; d0-d42, vs Negative Control, SOD+CAT 400:100 U/kg", "result": "improved"}, {"measurement": "Average Body Wt. Gain (kg) Day 0-14", "setting": "[5]; piglets, day 0-14", "result": 3.720, "unit": "kg"}, {"measurement": "Feed Conversion Corrected Day 0-14", "setting": "[5]; piglets, day 0-14", "result": 1.215}, {"measurement": "Feed Intake (kg/pig) Day 0-14", "setting": "[5]; piglets, day 0-14", "result": 4.52, "unit": "kg/pig"}, {"measurement": "Mortality % Day 0-14", "setting": "[5]; piglets, day 0-14", "result": 0.000, "unit": "%"}, {"measurement": "Average Body Wt. (kg) Day 14", "setting": "[5]; piglets, day 14", "result": 9.215, "unit": "kg"}, {"measurement": "Body Weight Coefficient of Variation (Day 14)", "setting": "[5]; piglets, day 14", "result": 4.700}]}
{"molecule": "S5639 from Sigma Mn-SOD Escherichia coli: commercially available bacterial (from E. coli) Mn-SOD (protein, UniProt P00448 2-206, looked up) Superoxide dismutase [Mn]: SYTLPSLPYAYDALEPHFDKQTMEIHHTKHHQTYVNNANAALESLPEFANLPVEELITKLDQLPADKKTVLRNNAGGHANHSLFWKGLKKGTTLQGDLKAAIERDFGSVDNFKAEFEKAAASRFGSGWAWLVLKGDKLAVVSTANQDSPLMGEAISGASGFPIMGLDVWEHAYYLKFQNRRPDYIKEFWNVVNWDEAAARFAAKK", "values": [{"measurement": "Relative Activity Unit (U/mg EP)", "setting": "[1]", "result": 10240, "unit": "U/mg EP"}, {"measurement": "loss of activity under gastric stability studies", "setting": "[2]", "result": 57, "unit": "%"}, {"measurement": "activity left after gastric press for 30 min", "setting": "[2]; 30 min", "result": 26, "unit": "%"}, {"measurement": "Gastric stability after 15 min (remaining activity, approx, %)", "setting": "[4]; after 15 min, method of Example 10", "result": 26, "unit": "%"}]}
{"molecule": "SEQ ID NO 35: superoxide dismutase; donor Trichoderma rossicum in b755, Trichoderma sp-44174 in b566 (protein, Trichoderma sp-44174, superoxide dismutase; donor Trichoderma rossicum, Trichoderma sp-44174 in b566) MRASGILTVLSLAVSSCVAEKDAPIVTGNPHSVEYKATLPKKPFFSNAALVGNVKGYVSAVAAPSGKGVRFSVQFENFPKSGGPFMYHIHEEPATNGNCTSTLAHLDPYHRGETPACDSSKPETCQVGDLSGKYGKITSDPFVAEYFDLYTSLQPGSPAFFGNRSIVVHYANKTRLTCANFAKLPVSDTATKAHTTTSAHHTVIHGPAASGGRHNTTSSHNITGPHYTTGSHHTTDVSPTGSLNPTGIVTAPGSPTTPATFTTVAAGGSASATSSIVPFPGAASGNRVSLALLSGVVAAMFFSL", "values": [{"measurement": "Relative Activity Unit (U/mg EP)", "setting": "[1]", "result": "~3000", "unit": "U/mg EP"}, {"measurement": "activity retained under gastric stability studies", "setting": "[2]", "result": "at least 40%"}]}
{"molecule": "SEQ ID NO 37: superoxide dismutase; donor Trichoderma sp-54723 in b755, Trichoderma rossicum in b566 (protein, listed as Trichoderma rossicum) MRASGILAVLSLAVSGCIAEKDAPIVTGNPHSVEYKATLPKKPFFSNAALVGNVKGYVSAVAAPSGKGVRFSVQFENFPKSGGPFMYHIHEEPATNGNCTSTLAHLDPYHRGETPACDSSKPETCQVGDLSGKYGKITSDPFVAEYFDLYTSLQPGSPAFFGNRSIVVHYANKTRLTCANFAKLPVSDTATKAHTTTSAHHTVIHGPAASGGRHNTTSSHNITGPHYTTGSHHTTDVSPTGSLNPTGIVTAPGSPTTPATFTTVAAGGSASATSSIVPFPGAASGNRVSLALLSGVVAAMFFSL", "values": [{"measurement": "activity retained under gastric stability studies", "setting": "[2]", "result": "at least 40%"}]}
{"molecule": "Catalase: Catalase fed alone in the piglet trial of FIG. 17 (protein, Aspergillus niger; mat_peptide (1)..(740)) MRHFWLLPAVAGIAGAQCPYLSGEMSFTQEQDNAGDTIEVTEQTIDNTLYVNDTGSYMTTDFGTPISDQYSLKAGRRGPTLLEDFIFRQKLQRFDHERVPERVVHARGAGAYGTFKSYADWSNVTAADFLSANEKETPMFCRFSTVVGFRGSVDTARDVHGHACRFYTDEGNYDIVGINFAPFFIQDAIQFPDLVHAIKPMPNNEIPQAATAHTSAWDFFSQQSTALHSALWLMSGNGIPRSFRHMNGYGVHSFRFVAANGTSKVVRYRWKSQQGVASLVWEEAQAAAGKNSDYHRQDLYNAIANGHYPKYELQAQIMDEADMLRFGFDLLDPTKLVPEEVVPYTPLGMMELNANPTNYFAEVEQAGFQPGHVVPGIDFTDDPLLQGRLFSYLDTQLTRHGGPNFEQIPVNRPRKPVHNNNRDGFGQQQIPTNNWAYTPNTMSNGYPMQANQTHGHGFFTSPYRYASGHLIREPSPTFHDHWSQPAMFWNSLIPAEQQMVVNAIVFENSKVNSPHVRKNVVNQLNMVNNNLAVRVARGLGLDEPSPNPTYYTSNKTSNVGTFGKPLLSIEGLQVGFLASNSHPESIKQGQAMAAQFSAAGVDLNIVTEAYADGVNTTYALSDAIDFDALIIADGVQSLFASPSLANQMNSTATSTLYPPARPYQILVDSFRYGKPVAAVGSGSAALKNAGIDTSRSGVYTGSSETTENIAKEVLKGLYTFRFVDRFALDE", "values": [{"measurement": "Feed Conversion Ratio (FCR)", "setting": "[6]", "result": "significantly improved the FCR"}]}
{"molecule": "SEQ ID NO 18: superoxide dismutase from Cladobotryum sp. (protein, Cladobotryum sp) MARQGLFLASLLIFPFASCAASEDPTGSKPQFASIPDSQQALLGSFSSTMSVSTFSLPALPYAYDALEPSISAQIMELHHSKHHQTYVNNLNNALKSYFVAISANDVPSQIALQAAVKFNGGGHINHSLFWENLCPATSPDADPQSAPTLAAEISKTWGSLEGFKDAMSKALLGLQGSGWGWLVKDGRALRIVTTKDQDPVVGGEVPIFGIDMWEHAYYLQYLNGKAAYVENIWKVINWKTAERRFIGDRDDAFKILKASI", "values": [{"measurement": "activity retained under gastric stability studies", "setting": "[2]", "result": "at least 40%"}]}
